From PMC12491437 (Nature Communications, 2025)
Where “and” joins values, the source holds several entries; their conditions need not be identical. Equal values may be shown once.

B1: D2R V96S/V97C, FLAG-D2R-Rluc8 / FLAG-D2R-Venus (receptor, UniProt P14416 1-443, looked up)
chain: MDPLNLSWYDDDLERQNWSRPFNGSDGKADRPHYNYYATLLTLLIAVIVFGNVLVCMAVSREKALQTTTNYLIVSLAVADLLVATLVMPWVVYLESCGEWKFSRIHCDIFVTLDVMMCTASILNLCAISIDRYTAVAMPMLYNTRYSSKRRVTVMISIVWVLSFTISCPLLFGLNNADQNECIIANPAFVVYSSIVSFYVPFIVTLLVYIKIYIVLRRRRKRVNTKRSSRAFRAHLRAPLKGNCTHPEDMKLCTVIMKSNGSFPVNRRRVEAARRAQELEMEMLSSTSPPERTRYSPIPPSHHQLTLPDPSHHGLHSTPDSPAKPEKNGHAKDHPKIAKIFEIQTMPNGKTRTSLKTMSRRKLSQQKEKKATQMLAIVLGVFIICWLPFFITHILNIHCDCNIPPVLYSAFTWLGYVNSAVNPIIYTTFNIEFRKAFLKILHC
notes: D2 dopamine receptor; mutant made from the FLAG-D2R-Rluc8 plasmid by site-directed mutagenesis; The mutant was also moved into the FLAG-D2R-Venus plasmid for saturation BRET; also called Mut2; D2R-Rluc8 V96S/V97C; source: HEK293, transfected; in intact cells (BRET, PD-PALM) and in lysate (Western blot); not shown: FLAG, N-terminal, kept; Rluc8 (donor copy)

What was measured:
[1] = biological target: D2R V96C, FLAG-D2R-Rluc8 / FLAG-D2R-Venus (UniProt P14416); assay: FRET or BRET; β-arrestin recruitment BRET in HEK293 cells: D2R-Rluc8 donor, βarr1-YFP or βarr2-YFP acceptor, 5 μM coelenterazine-h; basal (PBS) and after quinpirole (10 μM time course over 5 min, fitted to a one-phase association; 1 nM-1 mM concentration response)
[2] = biological target: D2R V97C, FLAG-D2R-Rluc8 (UniProt P14416); assay: as above
[3] = biological target: D2 dopamine receptor (D2R) wild type, FLAG-D2R-Rluc8 / FLAG-D2R-Venus (UniProt P14416); assay: as above
[4] = biological target: D2R Y93C, FLAG-D2R-Rluc8 / FLAG-D2R-Venus (UniProt P14416); assay: as above
[5] = biological target: D2R V96S, FLAG-D2R-Rluc8 / FLAG-D2R-Venus (UniProt P14416); assay: as above
[6] = biological target: the molecule itself; assay: PD-PALM (single-molecule localisation microscopy, TIRF, neighbourhood analysis); cell surface FLAG-D2R on HEK293 cells labelled with anti-FLAG-CAGE500 (1:1), fixed; Getis-Franklin neighbourhood analysis, search radius 50 nm; basal or after 5 min 10 μM quinpirole

Row | Molecule | half time of quinpirole-induced recruitment [1] [s] | initial rate of quinpirole-induced recruitment (BRET ratio units per second) [1] | k (rate constant of quinpirole-induced recruitment, one-phase association fit) [1] [s⁻¹] | half time of quinpirole-induced recruitment [2] [s] | initial rate of quinpirole-induced recruitment (BRET ratio units per second) [2] | k (rate constant of quinpirole-induced recruitment, one-phase association fit) [2] [s⁻¹] | half time of quinpirole-induced recruitment [3] | half time of quinpirole-induced recruitment [4] [s] | initial rate of quinpirole-induced recruitment (BRET ratio units per second) [4] | k (rate constant of quinpirole-induced recruitment, one-phase association fit) [4] [s⁻¹] | half time of quinpirole-induced recruitment [5] [s] | initial rate of quinpirole-induced recruitment (BRET ratio units per second) [5] | k (rate constant of quinpirole-induced recruitment, one-phase association fit) [5] [s⁻¹] | increase of receptors in oligomers relative to D2R WT [6] [%]
1 | β-arrestin-2-YFP (from UniProt P32121 1-409) (natural protein) | 35.5 | 0.001 | 0.02 | 32.7 | 0.000181 | 0.00443 | 68.4 s and 30.3 s and 41.1 s | 34.6 | 0.000113 | 0.00333 | 39.4 | 0.0007 | 0.027 | 
2 | B1 |  |  |  |  |  |  |  |  |  |  |  |  |  | ~6
